Target: fusion protein DBD-AppCt (GAL4 DBD fused to amino acids 650 to 695 of App) (Saccharomyces cerevisiae) (UniProt P04386)
Assay: cell-based or functional assay

B1: fusion protein AD-Fe65 (GAL4 activation domain fused to amino acids 152 to 708 of Fe65) (protein)
chain: MDKAELIPEPPKKKRKVELGTAANFNQSGNIADSSLSFTFTNSSNGPNLITTQTNSQALSQPIASSNVHDNFMNNEITASKIDDGNNSKPLSPGWTDQTAYNAFGITTGMFNTTTMDDVYNYLFDDEDTPPNPKKEIEFKAAGEAEEEEEDDDDEEEEEDLSSPPGLPEPLESVEAPPRPQALTDGPREHSKSASLLFGMRNSAASDEDSSWATLSQGSPSYGSPEDTDSFWNPNAFETDSDLPAGWMRVQDTSGTYYWHIPTGTTQWEPPGRASPSQGSSPQEESQLTWTGFAHGEGFEDGEFWKDEPSDEAPMELGLKEPEEGTLTFPAQSLSPEPLPQEEEKLPPRNTNPGIKCFAVRSLGWVEMTEEELAPGRSSVAVNNCIRQLSYHKNNLHDPMSGGWGEGKDLLLQLEDETLKLVEPQSQALLHAQPIISIRVWGVGRDSGRDFAYVARDKLTQMLKCHVFRCEAPAKNIATSLHEICSKIMAERRNARCLVNGLSLDHSKLVDVPFQVEFPAPKNELVQKFQVYYLGNVPVAKPVGVDVINGALESVLSSSSREQWTPSHVSVAPATLTILHQQTEAVLGECRVRFLSFLAVGRDVHTFAFIMAAGPASFCCHMFWCEPNAASLSEAVQAACMLRYQKCLDARSQASTSCLPAPPAESVARRVGWTVRRGVQSLWGSLKPKRLGAHTP
Question: Which 3-AT concentration at which differences in cell growth are detected does the source give for B1 here?
Answer: The 3-AT concentration at which differences in cell growth are detected was greater than 15 mM.

Question: And the growth of strain yRB49 (UI) plated on solid medium with 3-AT?
Answer: The growth of strain yRB49 (UI) plated on solid medium with 3-AT was 1 mM.

Reference: US20090005253A1, “Double Hybrid System Based on Gene Silencing by Transcriptional Interference” (AVENTIS PHARMA S.A., priority 2004, published 2009)
